Experimental data as given in patent publication US20240052042A1 (Novartis, published 2024).
Residue numbers refer to the chain shown, from its start. Each block holds one binder with its values, some of them ahead of it.

How the values were obtained:
[1] = target: T1, human NPR1 on CHO-K1 cells in the presence of ANP (human, UniProt P01160 124-151); assay: flow cytometry (FL2-H) on hNPR1 CHO-K1 cells with saturating ANP, IgG titrated; control parental CHO-K1 [Cont.), panel XX08]
T1 construct: also called hNPR1 CHO K1 + 100 nM ANP
T1 sequence: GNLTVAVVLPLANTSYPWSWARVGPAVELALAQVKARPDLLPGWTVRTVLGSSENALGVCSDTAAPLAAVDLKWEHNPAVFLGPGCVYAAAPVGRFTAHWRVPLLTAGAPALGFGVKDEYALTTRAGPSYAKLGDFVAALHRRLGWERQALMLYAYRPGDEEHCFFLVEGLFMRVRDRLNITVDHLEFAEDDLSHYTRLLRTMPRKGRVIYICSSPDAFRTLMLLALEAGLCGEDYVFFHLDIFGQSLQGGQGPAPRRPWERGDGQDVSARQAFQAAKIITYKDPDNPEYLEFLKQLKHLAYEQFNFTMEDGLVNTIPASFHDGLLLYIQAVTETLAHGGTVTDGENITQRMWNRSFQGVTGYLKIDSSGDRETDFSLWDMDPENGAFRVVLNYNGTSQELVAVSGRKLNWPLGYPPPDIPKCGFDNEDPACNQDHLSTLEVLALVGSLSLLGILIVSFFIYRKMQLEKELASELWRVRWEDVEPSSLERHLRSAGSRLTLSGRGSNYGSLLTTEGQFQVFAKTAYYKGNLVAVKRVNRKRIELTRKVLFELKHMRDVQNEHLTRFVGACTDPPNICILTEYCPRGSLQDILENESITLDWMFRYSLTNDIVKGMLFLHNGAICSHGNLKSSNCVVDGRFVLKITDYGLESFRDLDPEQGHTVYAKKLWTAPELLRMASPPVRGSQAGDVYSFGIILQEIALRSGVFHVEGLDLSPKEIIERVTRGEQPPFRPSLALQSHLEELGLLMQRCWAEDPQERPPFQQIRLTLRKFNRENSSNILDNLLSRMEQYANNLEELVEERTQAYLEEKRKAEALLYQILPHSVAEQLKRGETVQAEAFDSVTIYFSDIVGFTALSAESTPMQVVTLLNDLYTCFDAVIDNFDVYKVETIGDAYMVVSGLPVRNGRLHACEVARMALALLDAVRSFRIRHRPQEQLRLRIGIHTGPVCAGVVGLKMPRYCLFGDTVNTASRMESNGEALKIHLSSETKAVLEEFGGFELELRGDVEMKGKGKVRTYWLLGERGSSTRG
T1 sequence (peptide): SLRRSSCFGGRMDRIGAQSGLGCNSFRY

rat NPR1 (rNPR1) [2] = target: T2, rat NPR1 (rNPR1) (rat, UniProt P18910 29-469, limits assumed); assay: ELISA, IgG titrated on coated antigen, fluorescence [Cont.]
T2 construct: Soluble antigen
T2 sequence: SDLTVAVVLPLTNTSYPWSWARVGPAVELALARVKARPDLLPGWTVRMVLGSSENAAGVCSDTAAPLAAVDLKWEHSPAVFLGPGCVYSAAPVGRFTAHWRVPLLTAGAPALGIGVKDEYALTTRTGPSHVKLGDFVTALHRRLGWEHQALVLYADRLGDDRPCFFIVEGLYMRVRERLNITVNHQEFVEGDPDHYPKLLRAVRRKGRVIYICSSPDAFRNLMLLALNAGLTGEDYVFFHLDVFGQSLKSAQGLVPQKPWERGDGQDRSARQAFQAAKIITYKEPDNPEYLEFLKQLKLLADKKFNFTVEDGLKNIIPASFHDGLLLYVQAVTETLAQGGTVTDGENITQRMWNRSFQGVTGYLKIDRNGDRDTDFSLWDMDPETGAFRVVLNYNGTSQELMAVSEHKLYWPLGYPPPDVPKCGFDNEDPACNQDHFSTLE

[3] = target: T3, human Natriuretic Peptide Receptor 1 (hNPR1) (human, UniProt P16066 33-473, limits assumed); assay: as above
T3 construct: pannings used NPR1-hFc; also called NPR1-hFc
T3 sequence: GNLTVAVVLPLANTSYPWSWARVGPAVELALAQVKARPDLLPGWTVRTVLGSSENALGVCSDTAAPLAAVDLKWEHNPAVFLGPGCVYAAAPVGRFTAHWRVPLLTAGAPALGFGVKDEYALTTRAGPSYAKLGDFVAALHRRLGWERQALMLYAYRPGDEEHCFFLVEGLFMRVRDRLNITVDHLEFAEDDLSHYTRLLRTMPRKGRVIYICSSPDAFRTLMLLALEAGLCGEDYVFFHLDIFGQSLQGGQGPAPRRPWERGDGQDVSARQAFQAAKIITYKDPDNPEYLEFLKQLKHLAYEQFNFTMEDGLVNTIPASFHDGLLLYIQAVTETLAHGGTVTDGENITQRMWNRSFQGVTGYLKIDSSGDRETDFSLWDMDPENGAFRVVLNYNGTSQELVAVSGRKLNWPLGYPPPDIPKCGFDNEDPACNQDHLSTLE

[4] = target: T1, human NPR1 on CHO-K1 cells in the …; assay: flow cytometry (FL2-H) on hNPR1 CHO-K1 cells with saturating ANP, IgG titrated; control parental CHO-K1 [panel XX01]
hNPR1-ANP complex = target: T4, hNPR1-ANP complex (human, UniProt P01160 124-151, limits assumed); assay: FRET ANP competition assay, IgG titrated on hNPR1 with Cy5-labeled ANP; negative values mean more ANP signal [panel XX01]
T4 construct: hNPR1 antigen in the presence of ANP; also called hNPR1 + 100 nM ANP
T4 sequence: T3 sequence
T4 sequence (peptide): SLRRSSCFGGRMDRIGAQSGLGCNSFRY
Method: The same 31 IgGs were tested for ANP competition using a Fluorescence Resonance Energy Transfer (FRET)-based assay in which the NPR1-specific antibodies competed with ANP for binding to NPR1. In this FRET based assay (see FIG. 3), Eu-labeled Streptavidin (for measurement of IgGs) or Eu-labeled anti-hFc antibody (for measurement of FabCys) was used as an energy donor, while Cy5-labeled ANP was used as an acceptor (for all measurements). The resulting fluorescent signal was decreased by ANP-competitive antibodies. The assay was performed as follows: antibodies were mixed with NPR1 and incubated for 5 minutes at room temperature. After addition of the Eu-labeled donor and incubation for 30 minutes at room temperature, the Cy5-ANP solution was added. After a further 60-minute incubation, readout was performed using a TECAN Infinite M1000 Pro using an excitation wavelength of 317 nm and an emission wavelength of 665 nm. Percentage of ANP competition was calculated according to the following formulae: […]

[5] = target: human NPR1 on CHO-K1 cells in the presence of ANP (human) (UniProt P01160); assay: flow cytometry, hNPR1 CHO-K1 cells, IgG
rNPR1-ANP complex = target: T5, rNPR1-ANP complex (rat, UniProt P01160 124-151 (human entry), limits assumed); assay: ELISA, IgG titrated on coated antigen with ANP (250 fold molar excess), fluorescence [Cont.]
T5 construct: rNPR1 antigen in the presence of ANP; also called rNPR1 + 100 nM ANP
T5 sequence: T2 sequence
T5 sequence (peptide): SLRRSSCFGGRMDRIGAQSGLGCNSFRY

[6] = target: constitutively active human NPR1 mutant (W74R) (human) (UniProt P16066); assay: ELISA, IgG
[7] = target: W74R hNPR1 mutant in the presence of ANP (human) (UniProt P01160); assay: ELISA, IgG
rat NPR1 (rNPR1) [8] = target: T2, rat NPR1 (rNPR1); assay: ELISA, IgG titrated on coated antigen, fluorescence [Cont.]; remark: listed apart in the source
[9] = target: T6, human NPR3 in the presence of ANP (human, UniProt P17342 27-481; P01160 124-151, limits assumed); assay: ELISA, IgG titrated on coated antigen with ANP (250 fold molar excess), fluorescence [Cont.]
T6 construct: also called hNPR3 + 100 nM ANP
T6 sequence (looked up): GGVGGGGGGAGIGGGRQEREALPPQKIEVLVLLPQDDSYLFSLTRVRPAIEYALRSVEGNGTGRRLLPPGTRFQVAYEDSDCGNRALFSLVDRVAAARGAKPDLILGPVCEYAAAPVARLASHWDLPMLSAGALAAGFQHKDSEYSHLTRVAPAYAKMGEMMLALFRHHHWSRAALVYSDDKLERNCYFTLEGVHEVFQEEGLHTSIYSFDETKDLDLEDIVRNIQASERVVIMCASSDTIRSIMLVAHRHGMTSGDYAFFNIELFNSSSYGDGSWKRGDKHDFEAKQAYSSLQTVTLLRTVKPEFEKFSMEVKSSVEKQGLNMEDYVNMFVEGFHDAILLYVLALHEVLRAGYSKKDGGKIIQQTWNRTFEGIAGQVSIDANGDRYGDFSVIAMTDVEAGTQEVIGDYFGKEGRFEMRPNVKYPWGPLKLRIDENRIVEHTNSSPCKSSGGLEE
T6 sequence (peptide, looked up): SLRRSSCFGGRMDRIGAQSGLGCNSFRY

[10] = target: T1, human NPR1 on CHO-K1 cells in the …; assay: flow cytometry (FL2-H) on hNPR1 CHO-K1 cells with saturating ANP, IgG titrated; control parental CHO-K1 [panel XX03]
[11] = target: T7, human NPR3 (counter target) (human, UniProt P17342 27-481, limits assumed); assay: ELISA, IgG titrated on coated antigen, fluorescence [Cont.]
T7 construct: Pannings used hNPR3-hFc; also called hNPR3; hNPR3-hFc
T7 sequence (looked up): T6 sequence (looked up)

[12] = target: T1, human NPR1 on CHO-K1 cells in the …; assay: flow cytometry (FL2-H) on hNPR1 CHO-K1 cells with saturating ANP, IgG titrated; control parental CHO-K1 [panel XX04]

B1: XX08 (antibody, V domains shown)
VH: EVQLLESGGGLVQPGGSLRLSCAASGFTFNTHYIHWVRQAPGKGLEWVSSIGGQGGMTLYADSVKGRFTISRDNSKNTLYLQMNSLRAEDTAVYYCARERGYVYYHMFDPWGQGTLVTVSS
VL: DIVLTQSPATLSLSPGERATLSCRASQSITRNYLAWYQQKPGQAPRLLIYGASSRATGIPARFSGSGSGTDFTLTISSLEPEDFAVYYCQQHSMYPRTFGQGTKVEIKR
notes: x axis reads IgG conc; [nM]; also called XX08 (IgG format)
- EC50 (read off the curve) [1]: ~2 nM
- EC50 (read off the curve) (rat NPR1 (rNPR1) [2]): ~20 nM
- EC50 (read off the curve) [3]: ~20 nM

B2: XX01 (IgG format) (antibody, V domains shown)
VH: B1 VH with G52S, G53S, Q54S, G56Q, M57S, L59Y
VL: DIVLTQSPATLSLSPGERATLSCRASQSITRNYLAWYQQKPGQAPRLLIYGASSRATGIPARFSGSGSGTDFTLTISSLEPEDFAVYYCQQHSMYPRTFGQGTKVEIK
- EC50 (read off the curve) [4]: ~0.8 nM
- EC50 (read off the curve) (hNPR1-ANP complex): ~0.1 nM

B5: XX04 (IgG format) (antibody, V domains shown)
VH: QVQLLESGGGLVQPGGSLRLSCAASGFTFSSYWMNWVRQAPGKGLEWVSAISSDGSYTYYADSVKGRFTISRDNSKNTLYLQMNSLRAEDTAVYYCARDRYSMIYSYGAGAFDYWGQGTLVTVSS
VL: DIQMTQSPSSLSASVGDRVTITCRASQGISSYLAWYQQKPGKAPKLLIYTASTLQSGVPSRFSGSGSGTDFTLTISSLQPEDFATYYCQQEWVKPRTFGQGTKVEIK
- EC50 (read off the curve) [12]: ~2 nM

More lines, now with the values ahead:

- flow cytometry S/BG at 2 µM IgG [5]: 1.1 S/BG
- binding result (rNPR1-ANP complex): no binding (tested: 1000 nM)
- EC50 [6]: 0.9 nM
- EC50 [7]: 0.8 nM
- binding result (rat NPR1 (rNPR1) [8]): no binding (tested: 1000 nM)
B3: WW06 (IgG format) (antibody, V domains shown)
VH: QVQLVQSGAEVKKPGESLKISCKGSGYSFTSYWIAWVRQMPGKGLEWMGRIDPDNSYTRYSPSFQGQVTISADKSISTAYLQWSSLKASDTAMYYCARWLSPGYALGEQPAGMDHWGQGTLVTVSS
VL: DIVLTQPPSVSGAPGQRVTISCTGSSSNIGAGYAVHWYQQLPGTAPKLLIYSNNKRPSGVPDRFSGSKSGTSASLAITGLQAEDEADYYCQSYDLQKSSRVFGGGTKLTVLG
notes: also called WW06_LALA

- binding result [9]: no binding (tested: 200 nM)
- EC50 (read off the curve) [10]: ~1 nM
- binding result [11]: no binding (tested: 200 nM)
B4: XX03 (IgG format) (antibody, V domains shown)
VH: B5 VH with Q1E, A50V, S52E, D54K, S56N, T58I, Y59F
VL: B5 VL with Q89M, E91S, W92Y, V93E
